# Assay results taken from the supplement of paper PMC10065799, “High-throughput profiling of sequence recognition by tyrosine kinases and SH2 domains using bacterial peptide display” (eLife, 2023).
# Tested on: c-Src
# Experiment: phosphorylation enrichment, bacterial display (enrichment ratio); higher = better substrate or ligand; peptides without Tyr show the background
# 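Also: 11-residue human phosphosite peptides and single-mutation variants displayed on the E. coli surface, counted by deep sequencing, each peptide's frequency after selection divided by its frequency in the unselected input library; frequency after pTyr selection over input frequency; kinase dosed for 20-30% of maximal phosphorylation in three min.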
row,Sequence,phosphorylation enrichment
1,NTDETYCIDNK [TUBB3_Y200_E205K],0.976
2,IYLGAYDRFLP [SLC22A5_Y486_V481I],5.43
3,GTSLIYWILFT [G6PC3_Y214_T216I],2.67
4,MHDSNSVSKGS [PDGFRA_Y849_Y849S],0.428
5,KWRGQYDVAIK [BTK_Y425],0.567
6,VPTSKYRGGGG [HBA1_Y141_L137P],0.363
7,ADAHHYLCKEV [JAK2_Y382],0.543
8,YSPCDYQPCLA [TNS1_Y798_Y796C],1.62
9,LFFFSYLLKNH [PTEN_Y180_V175L_YF],1
10,CTTIHYNYMRN [TP53_Y234_C238R],0.501
11,GHLFAYNWISI [BEST1_Y227_D228N_YF],0.392
12,LRRFIYRPPDQ [OTOF_Y1231_R1236Q],0.318
13,KRAIGHYSATS [FAM120A_Y327_Y327H],0.434
14,CTTIHYNFRCN [TP53_Y234_M237R_YF],0.469
15,CATIHYNYMCN [TP53_Y234_T230A],0.389
16,RNNIEYVRDIG [MUSK_Y577],0.416
17,MARDISRASYY [ALK_Y1278_Y1278S],0.463

row,Sequence,phosphorylation enrichment
1,HEKRAYICAHP [ACAD9_Y611_L606H],0.448
2,LADKPYTFEDY [FXN_Y118],6.91
3,LLASRYDSPIN [ABLIM1_Y638],0.96
4,RLDPVYFVAPA [LAMC2_Y250],7.69
5,IGEGTYRQVYK [CDK13_Y716_G717R],0.521
6,EQLQSYQVEII [KRT33A_Y268_A270V],0.575
7,FKIFLYTLNDN [FN1_Y1975_YF],0.43
8,DENWFYTRAAF [RPS19_Y54_S59F],0.534
9,VRFMAYTDEIF [F8_Y450_T454I],0.434
10,AQPHTYEEPGR [EPHA8_Y616_E612Q],0.452
11,TSPALYRLDLD [TRIL_Y352_A347T],1.44
12,NTTIHYNFMCN [TP53_Y234_C229N_YF],0.46
13,GTATAYLCGVK [ALPL_Y117],0.427
14,QKMADYSNKLF [PDPR_Y104_YF],0.81
15,HDEPTYARSSK [PEAK1_Y616],1.29
16,IGRWVYPLTPE [EIF2B5_Y319_R315G],0.502

# Molecular target: EPHB2 (UniProt P29323)
# Sequence (P29323 whole entry, looked up): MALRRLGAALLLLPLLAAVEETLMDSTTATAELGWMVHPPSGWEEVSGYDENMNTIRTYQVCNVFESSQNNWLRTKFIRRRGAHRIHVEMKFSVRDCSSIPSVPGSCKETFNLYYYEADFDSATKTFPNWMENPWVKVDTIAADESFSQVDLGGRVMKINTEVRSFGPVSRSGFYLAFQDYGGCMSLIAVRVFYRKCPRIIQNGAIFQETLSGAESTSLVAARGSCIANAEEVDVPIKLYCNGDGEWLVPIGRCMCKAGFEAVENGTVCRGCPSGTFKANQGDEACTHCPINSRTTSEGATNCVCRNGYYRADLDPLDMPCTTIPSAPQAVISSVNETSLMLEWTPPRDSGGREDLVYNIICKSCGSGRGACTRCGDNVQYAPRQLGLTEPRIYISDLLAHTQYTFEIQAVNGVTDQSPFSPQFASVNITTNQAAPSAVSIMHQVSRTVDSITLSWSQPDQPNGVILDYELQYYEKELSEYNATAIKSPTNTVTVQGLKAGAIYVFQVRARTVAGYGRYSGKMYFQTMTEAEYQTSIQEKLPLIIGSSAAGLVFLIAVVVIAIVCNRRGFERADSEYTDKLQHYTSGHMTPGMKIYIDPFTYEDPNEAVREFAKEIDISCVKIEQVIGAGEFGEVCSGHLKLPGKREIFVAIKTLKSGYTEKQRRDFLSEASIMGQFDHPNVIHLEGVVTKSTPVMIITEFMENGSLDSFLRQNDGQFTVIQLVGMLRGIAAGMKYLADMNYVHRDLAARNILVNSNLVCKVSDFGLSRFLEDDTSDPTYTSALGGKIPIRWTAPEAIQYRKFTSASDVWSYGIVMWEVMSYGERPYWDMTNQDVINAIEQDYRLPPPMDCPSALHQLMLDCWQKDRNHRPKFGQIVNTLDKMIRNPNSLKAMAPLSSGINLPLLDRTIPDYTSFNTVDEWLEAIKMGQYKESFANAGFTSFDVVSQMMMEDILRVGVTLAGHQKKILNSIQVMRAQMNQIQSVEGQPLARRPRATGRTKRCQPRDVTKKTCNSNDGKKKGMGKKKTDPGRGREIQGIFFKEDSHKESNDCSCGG
# Experiment: as above
row,Sequence,phosphorylation enrichment
1,NTDETYCIDNK [TUBB3_Y200_E205K],0.577
2,IYLGAYDRFLP [SLC22A5_Y486_V481I],4.21
3,GTSLIYWILFT [G6PC3_Y214_T216I],0.749
4,MHDSNSVSKGS [PDGFRA_Y849_Y849S],0.374
5,KWRGQYDVAIK [BTK_Y425],0.642
6,VPTSKYRGGGG [HBA1_Y141_L137P],0.341
7,ADAHHYLCKEV [JAK2_Y382],0.752
8,YSPCDYQPCLA [TNS1_Y798_Y796C],9.31
9,LFFFSYLLKNH [PTEN_Y180_V175L_YF],0.976
10,CTTIHYNYMRN [TP53_Y234_C238R],0.502
11,GHLFAYNWISI [BEST1_Y227_D228N_YF],0.469
12,LRRFIYRPPDQ [OTOF_Y1231_R1236Q],0.606
13,KRAIGHYSATS [FAM120A_Y327_Y327H],0.286
14,CTTIHYNFRCN [TP53_Y234_M237R_YF],0.499
15,CATIHYNYMCN [TP53_Y234_T230A],1.99
16,RNNIEYVRDIG [MUSK_Y577],0.404
17,MARDISRASYY [ALK_Y1278_Y1278S],0.395

row,Sequence,phosphorylation enrichment
1,HEKRAYICAHP [ACAD9_Y611_L606H],0.434
2,LADKPYTFEDY [FXN_Y118],1.04
3,LLASRYDSPIN [ABLIM1_Y638],0.929
4,RLDPVYFVAPA [LAMC2_Y250],4.85
5,IGEGTYRQVYK [CDK13_Y716_G717R],0.465
6,EQLQSYQVEII [KRT33A_Y268_A270V],0.529
7,FKIFLYTLNDN [FN1_Y1975_YF],0.791
8,DENWFYTRAAF [RPS19_Y54_S59F],0.594
9,VRFMAYTDEIF [F8_Y450_T454I],0.595
10,AQPHTYEEPGR [EPHA8_Y616_E612Q],0.577
11,TSPALYRLDLD [TRIL_Y352_A347T],0.51
12,NTTIHYNFMCN [TP53_Y234_C229N_YF],0.618
13,GTATAYLCGVK [ALPL_Y117],0.507
14,QKMADYSNKLF [PDPR_Y104_YF],0.647
15,HDEPTYARSSK [PEAK1_Y616],0.321
16,IGRWVYPLTPE [EIF2B5_Y319_R315G],0.58

# Molecular target: Hck (UniProt P08631)
# Sequence (P08631 whole entry, looked up): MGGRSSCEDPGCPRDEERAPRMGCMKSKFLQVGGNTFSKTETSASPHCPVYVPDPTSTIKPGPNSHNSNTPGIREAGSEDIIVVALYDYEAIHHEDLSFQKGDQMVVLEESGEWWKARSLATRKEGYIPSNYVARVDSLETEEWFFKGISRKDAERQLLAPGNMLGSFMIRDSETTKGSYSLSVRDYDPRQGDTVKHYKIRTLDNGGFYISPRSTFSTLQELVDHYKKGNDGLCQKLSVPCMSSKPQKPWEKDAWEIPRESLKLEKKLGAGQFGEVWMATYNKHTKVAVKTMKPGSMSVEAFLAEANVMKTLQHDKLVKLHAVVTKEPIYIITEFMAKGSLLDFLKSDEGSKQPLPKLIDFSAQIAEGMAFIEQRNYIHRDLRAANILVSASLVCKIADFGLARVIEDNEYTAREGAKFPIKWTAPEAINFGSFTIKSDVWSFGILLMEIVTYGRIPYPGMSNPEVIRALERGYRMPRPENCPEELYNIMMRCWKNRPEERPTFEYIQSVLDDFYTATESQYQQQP
# Experiment: as above
row,Sequence,phosphorylation enrichment
1,NTDETYCIDNK [TUBB3_Y200_E205K],0.592
2,IYLGAYDRFLP [SLC22A5_Y486_V481I],6.82
3,GTSLIYWILFT [G6PC3_Y214_T216I],1.74
4,MHDSNSVSKGS [PDGFRA_Y849_Y849S],0.432
5,KWRGQYDVAIK [BTK_Y425],0.479
6,VPTSKYRGGGG [HBA1_Y141_L137P],0.355
7,ADAHHYLCKEV [JAK2_Y382],0.549
8,YSPCDYQPCLA [TNS1_Y798_Y796C],0.838
9,LFFFSYLLKNH [PTEN_Y180_V175L_YF],0.705
10,CTTIHYNYMRN [TP53_Y234_C238R],0.546
11,GHLFAYNWISI [BEST1_Y227_D228N_YF],0.444
12,LRRFIYRPPDQ [OTOF_Y1231_R1236Q],0.493
13,KRAIGHYSATS [FAM120A_Y327_Y327H],0.312
14,CTTIHYNFRCN [TP53_Y234_M237R_YF],0.439
15,CATIHYNYMCN [TP53_Y234_T230A],0.487
16,RNNIEYVRDIG [MUSK_Y577],0.395
17,MARDISRASYY [ALK_Y1278_Y1278S],0.395

row,Sequence,phosphorylation enrichment
1,HEKRAYICAHP [ACAD9_Y611_L606H],0.49
2,LADKPYTFEDY [FXN_Y118],0.945
3,LLASRYDSPIN [ABLIM1_Y638],0.923
4,RLDPVYFVAPA [LAMC2_Y250],8.92
5,IGEGTYRQVYK [CDK13_Y716_G717R],0.411
6,EQLQSYQVEII [KRT33A_Y268_A270V],0.53
7,FKIFLYTLNDN [FN1_Y1975_YF],0.494
8,DENWFYTRAAF [RPS19_Y54_S59F],0.629
9,VRFMAYTDEIF [F8_Y450_T454I],0.436
10,AQPHTYEEPGR [EPHA8_Y616_E612Q],0.46
11,TSPALYRLDLD [TRIL_Y352_A347T],0.817
12,NTTIHYNFMCN [TP53_Y234_C229N_YF],0.511
13,GTATAYLCGVK [ALPL_Y117],0.501
14,QKMADYSNKLF [PDPR_Y104_YF],0.554
15,HDEPTYARSSK [PEAK1_Y616],0.918
16,IGRWVYPLTPE [EIF2B5_Y319_R315G],0.509

# Tested on: c-Abl (mouse)
# Experiment: as above
row,Sequence,phosphorylation enrichment
1,NTDETYCIDNK [TUBB3_Y200_E205K],0.834
2,IYLGAYDRFLP [SLC22A5_Y486_V481I],2.56
3,GTSLIYWILFT [G6PC3_Y214_T216I],1.43
4,MHDSNSVSKGS [PDGFRA_Y849_Y849S],0.424
5,KWRGQYDVAIK [BTK_Y425],0.802
6,VPTSKYRGGGG [HBA1_Y141_L137P],0.446
7,ADAHHYLCKEV [JAK2_Y382],0.644
8,YSPCDYQPCLA [TNS1_Y798_Y796C],0.827
9,LFFFSYLLKNH [PTEN_Y180_V175L_YF],1.66
10,CTTIHYNYMRN [TP53_Y234_C238R],0.515
11,GHLFAYNWISI [BEST1_Y227_D228N_YF],0.58
12,LRRFIYRPPDQ [OTOF_Y1231_R1236Q],0.333
13,KRAIGHYSATS [FAM120A_Y327_Y327H],0.474
14,CTTIHYNFRCN [TP53_Y234_M237R_YF],0.584
15,CATIHYNYMCN [TP53_Y234_T230A],0.511
16,RNNIEYVRDIG [MUSK_Y577],0.602
17,MARDISRASYY [ALK_Y1278_Y1278S],0.59

row,Sequence,phosphorylation enrichment
1,HEKRAYICAHP [ACAD9_Y611_L606H],0.59
2,LADKPYTFEDY [FXN_Y118],1.55
3,LLASRYDSPIN [ABLIM1_Y638],1.13
4,RLDPVYFVAPA [LAMC2_Y250],1.82
5,IGEGTYRQVYK [CDK13_Y716_G717R],0.492
6,EQLQSYQVEII [KRT33A_Y268_A270V],0.858
7,FKIFLYTLNDN [FN1_Y1975_YF],0.877
8,DENWFYTRAAF [RPS19_Y54_S59F],0.868
9,VRFMAYTDEIF [F8_Y450_T454I],1.23
10,AQPHTYEEPGR [EPHA8_Y616_E612Q],0.465
11,TSPALYRLDLD [TRIL_Y352_A347T],0.741
12,NTTIHYNFMCN [TP53_Y234_C229N_YF],0.782
13,GTATAYLCGVK [ALPL_Y117],0.667
14,QKMADYSNKLF [PDPR_Y104_YF],1.26
15,HDEPTYARSSK [PEAK1_Y616],0.864
16,IGRWVYPLTPE [EIF2B5_Y319_R315G],0.717
